B1: CCHC-type zinc finger nucleic acid binding protein (Homo sapiens), P62633 (parent)
chain: MSSNECFKCGRSGHWARECPTGGGRGRGMRSRGRGGFTSDRGFQFVSSSLPDICYRCGESGHLAKDCDLQEDACYNCGRGGHIAKDCKEPKREREQCCYNCGKPGHLARDCDHADEQKCYSCGEFGHIQKDCTKVKCYRCGETGHVAINCSKTSEVNCYRCGESGHLARECTIEATA

Variants of: B1
Conditions: with anm1_rat Prmt1, Q63009
Sequence of anm1_rat Prmt1, Q63009 (Q63009 whole entry, looked up): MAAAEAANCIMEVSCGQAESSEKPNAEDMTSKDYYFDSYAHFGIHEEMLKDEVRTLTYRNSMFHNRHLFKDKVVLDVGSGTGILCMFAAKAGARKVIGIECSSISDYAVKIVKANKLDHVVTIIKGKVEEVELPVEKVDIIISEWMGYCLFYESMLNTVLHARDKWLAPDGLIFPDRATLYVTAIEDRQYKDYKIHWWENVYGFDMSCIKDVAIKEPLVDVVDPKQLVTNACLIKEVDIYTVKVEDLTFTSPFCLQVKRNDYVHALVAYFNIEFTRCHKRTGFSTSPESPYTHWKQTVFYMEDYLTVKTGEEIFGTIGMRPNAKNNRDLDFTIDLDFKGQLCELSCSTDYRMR
In the case of R25A;R27A, the “effect of a mutation on the interaction” value is reported as “decreasing interaction”.

From IntAct's records for PubMed 24726729
